Data: patent US11332499B2, “Cyclic peptides and methods of use thereof” (Regents of the University of Minnesota, priority 2018, dated 2022)
Values joined by “and” are separate entries in the source; they are usually repeats but may differ in a detail not shown here. Identical values can stand only once. Like-named read-outs stand apart in the source and are kept apart here. Bridge positions count the residues as written; N and C are the ends. Square brackets hold non-standard residues; d marks the D form. Ends that are not written are not given here.

Legend:
[1] = target: T1, mMC5R (Mus musculus, UniProt P41149); assay: AlphaScreen cAMP assay, agonist and inverse agonist activity, HEK293 cells stably expressing mMC5R; assay type: cell-based; details: Table 2; at 100 μM
T1 construct: expressed in transfected cells
T1 sequence (P41149 whole entry): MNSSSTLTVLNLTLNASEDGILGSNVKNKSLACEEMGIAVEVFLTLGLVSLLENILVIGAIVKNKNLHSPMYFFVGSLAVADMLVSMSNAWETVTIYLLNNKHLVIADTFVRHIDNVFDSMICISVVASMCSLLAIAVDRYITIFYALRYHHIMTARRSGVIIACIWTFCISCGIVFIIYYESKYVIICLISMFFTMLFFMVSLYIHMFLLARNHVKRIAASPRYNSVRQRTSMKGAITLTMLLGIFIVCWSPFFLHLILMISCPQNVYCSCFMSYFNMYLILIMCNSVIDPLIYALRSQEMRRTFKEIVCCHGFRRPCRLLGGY

[2] = target: T2, mMC3R (Mus musculus, UniProt P33033); assay: AlphaScreen cAMP assay, agonist activity, HEK293 cells stably expressing mMC3R; assay type: cell-based; details: Table 2; at 100 μM
T2 construct: expressed in transfected cells
T2 sequence (P33033 whole entry): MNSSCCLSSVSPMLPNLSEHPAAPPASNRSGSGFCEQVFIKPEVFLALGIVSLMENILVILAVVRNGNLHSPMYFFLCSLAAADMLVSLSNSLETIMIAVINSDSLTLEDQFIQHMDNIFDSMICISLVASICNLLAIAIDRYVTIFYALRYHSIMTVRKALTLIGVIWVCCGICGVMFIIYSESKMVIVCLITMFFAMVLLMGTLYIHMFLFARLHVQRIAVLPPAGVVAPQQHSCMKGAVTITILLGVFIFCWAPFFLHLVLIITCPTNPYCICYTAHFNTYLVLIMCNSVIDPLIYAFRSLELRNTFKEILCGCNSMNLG

[3] = target: T3, mMC1R (Mus musculus, UniProt Q01727); assay: AlphaScreen cAMP assay, agonist activity, HEK293 cells stably expressing mMC1R; assay type: cell-based; details: Table 2; at 100 μM, relative to NDP-MSH
T3 construct: expressed in transfected cells
T3 sequence (Q01727 whole entry): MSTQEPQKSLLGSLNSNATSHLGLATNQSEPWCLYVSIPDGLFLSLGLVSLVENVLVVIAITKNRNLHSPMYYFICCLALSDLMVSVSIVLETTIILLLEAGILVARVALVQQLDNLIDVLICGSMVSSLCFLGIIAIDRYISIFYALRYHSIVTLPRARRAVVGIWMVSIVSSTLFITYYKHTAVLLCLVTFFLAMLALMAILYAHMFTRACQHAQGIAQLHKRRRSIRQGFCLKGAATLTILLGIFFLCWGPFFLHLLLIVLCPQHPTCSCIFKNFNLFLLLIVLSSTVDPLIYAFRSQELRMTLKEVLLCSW

[4] = target: T4, mMC4R (Mus musculus, UniProt P56450); details: Example 4; from Ki values
T4 sequence (P56450 whole entry): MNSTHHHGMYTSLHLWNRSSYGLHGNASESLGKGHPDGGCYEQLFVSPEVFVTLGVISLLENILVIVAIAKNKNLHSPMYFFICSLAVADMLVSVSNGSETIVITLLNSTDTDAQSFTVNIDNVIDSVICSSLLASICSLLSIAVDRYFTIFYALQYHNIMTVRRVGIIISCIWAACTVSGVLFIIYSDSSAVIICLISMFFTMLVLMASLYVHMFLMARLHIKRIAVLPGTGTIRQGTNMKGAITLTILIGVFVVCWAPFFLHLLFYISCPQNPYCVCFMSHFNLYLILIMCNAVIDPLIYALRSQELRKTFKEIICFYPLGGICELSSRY

[5] = target: T4, mMC4R; assay: AlphaScreen cAMP assay, agonist activity, HEK293 cells stably expressing mMC4R; assay type: cell-based; set-up: expressed in transfected cells; details: Table 2; at 100 μM
[6] = target: T5, MC4R (Homo sapiens, UniProt P32245); set-up: expressed in transfected cells; details: inhibition of α-MSH activity; cited from earlier work
Target sequence in this assay (P32245 whole entry): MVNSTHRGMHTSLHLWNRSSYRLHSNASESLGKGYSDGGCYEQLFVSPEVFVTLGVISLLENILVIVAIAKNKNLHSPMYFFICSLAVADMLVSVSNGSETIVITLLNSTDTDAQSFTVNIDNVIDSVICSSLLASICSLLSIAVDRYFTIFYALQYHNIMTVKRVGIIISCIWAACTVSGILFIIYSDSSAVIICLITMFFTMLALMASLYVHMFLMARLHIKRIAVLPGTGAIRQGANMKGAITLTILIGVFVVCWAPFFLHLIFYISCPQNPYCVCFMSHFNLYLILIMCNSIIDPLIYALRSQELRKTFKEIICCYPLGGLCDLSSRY

[7] = target: hMC3R (Homo sapiens, UniProt P41968); details: inhibition of α-MSH activity; cited from earlier work
hMC3R, sequence (P41968 whole entry): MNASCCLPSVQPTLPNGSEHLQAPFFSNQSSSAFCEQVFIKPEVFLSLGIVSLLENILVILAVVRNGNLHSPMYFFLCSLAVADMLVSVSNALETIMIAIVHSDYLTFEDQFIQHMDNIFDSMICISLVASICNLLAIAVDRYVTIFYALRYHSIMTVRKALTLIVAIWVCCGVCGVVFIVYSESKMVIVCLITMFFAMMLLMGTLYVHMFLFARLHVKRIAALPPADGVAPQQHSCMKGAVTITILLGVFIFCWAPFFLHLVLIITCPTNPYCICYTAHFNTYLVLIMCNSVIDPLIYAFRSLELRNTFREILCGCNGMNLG

[8] = target: hMC1R (Homo sapiens, UniProt Q01726); details: inhibition of α-MSH activity, cited from earlier work
hMC1R, sequence (Q01726 whole entry): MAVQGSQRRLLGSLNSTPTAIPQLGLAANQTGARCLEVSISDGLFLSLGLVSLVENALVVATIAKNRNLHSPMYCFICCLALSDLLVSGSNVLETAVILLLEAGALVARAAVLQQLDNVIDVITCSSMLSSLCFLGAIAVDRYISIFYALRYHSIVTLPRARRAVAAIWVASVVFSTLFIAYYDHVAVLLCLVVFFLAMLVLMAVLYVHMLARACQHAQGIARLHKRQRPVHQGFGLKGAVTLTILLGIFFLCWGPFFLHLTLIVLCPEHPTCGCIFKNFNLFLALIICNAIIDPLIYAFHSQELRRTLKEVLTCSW

[9] = target: MC1R (Mus musculus, UniProt Q01727); details: previously reported, read-out: MC1R agonist potency, cited from earlier work
MC1R, sequence (Q01727 whole entry): as the sequence (Q01727 whole entry) above

[10] = target: T5, MC4R; details: previously reported; cited from earlier work
Target sequence in this assay (P32245 whole entry, species assumed): as the sequence (P32245 whole entry) above

[11] = target: MC4R (Mus musculus, UniProt P56450); details: β-galactosidase reporter gene assay; previously reported; cited from earlier work
MC4R (Mus musculus, UniProt P56450), sequence (P56450 whole entry): as the sequence (P56450 whole entry) above

[12] = target: MC3R (Mus musculus, UniProt P33033); details: β-galactosidase reporter gene assay; previously reported; cited from earlier work
MC3R, sequence (P33033 whole entry): as the sequence (P33033 whole entry) above

[13] = target: T5, MC4R; assay: Competitive radioligand binding, displacement of 125I-NDP-MSH, HEK293 cells expressing hMC4R; set-up: expressed in transfected cells; details: displacement of 125I-NDP-MSH
Target sequence in this assay (P32245 whole entry): as the sequence (P32245 whole entry) above

[14] = target: T5, MC4R; assay: Competitive radioligand binding, displacement of 125I-AGRP, HEK293 cells expressing hMC4R; set-up: expressed in transfected cells; details: displacement of 125I-AGRP
Target sequence in this assay (P32245 whole entry): as above
Method: Competitive binding affinity experiments were performed on HEK-293 cells stably expressing the wildtype hMC4R. […] The assay media was carefully aspirated and cells were washed once with assay buffer. Cell were lysed with 500 μL 0.1 M NaOH and 500 μL 1% Triton X-100 for a minimum of 10 min. […] All experiments were performed with duplicate data points and in at least two independent experimental replicates. […] Concentration-response curves and IC50 values were generated and analyzed by the PRISM program (version 4.0. GraphPad Inc.) by a nonlinear regression method. The standard error of the mean (SEM) was derived from the IC50 values from at least two independent experimental replicates.

[15] = system: free-feeding mice; assay: Mouse feeding study, intracerebroventricular (ICV) administration; assay type: in vivo; details: 10 nmol
Method: Cannulation surgeries were performed to place a cannula into the lateral cerebral ventricle as previously reported.^23,67,76 Mice were anesthetized with a mixture of xylazine (5 mg/kg) and ketamine (100 mg/kg) administered intraperitoneal (IP) and placed in a stereotaxic apparatus (David Kopf Instruments) that was used to guide the cannula placement. […] After surgery, flunixin meglumine (FluMegluine, Clipper Distribution Company) and 0.5 mL of 0.9% saline (Hospira, Lake Forrest, Ill.) was administered subcutaneously to aid in recovery. Mice recovered for at least 7 days prior to cannula placement validation. Mice were housed individually after surgery and for the remainder of the experiments.
Cannula placement was validated by the feeding response after ICV administration of 2.5 μg of human (h)PYY3-36 (cat # H8585; Bachem), as described previously.^23,67,75-76 Mice received saline treatment and hPYY treatment on different days separated by a washout period of at least 3 days in a crossover design nocturnal feeding paradigm. In this paradigm, compound or saline is administered 2 h prior to lights out (t=0 h) and body weight and food are measured. Mice have free access to food and water. At 4 h post-administration, food is measured. A mouse with a validated properly placed cannula consumed at least 0.8 g more food after hPYY administration compared to saline administration at 4 h.
All ICV and IT administration experiments utilized a crossover design with free access to standard chow. Mice were housed in RAR supplied conventional mouse cages. […] Matching vehicle controls (3% v/v DMSO in saline and 20% solutol) were prepared in parallel. The day of compound administration, an aliquot of stock solution was diluted with saline to the desired experimental dose in 3 μL, in parallel with vehicle control. For ICV administration, the desired experimental dose (3 μL) or vehicle control (3 μL) was delivered 2 h before lights out (t=0 h). For IT administration, the desired experimental dose (5 μL) or vehicle control (5 μL) was delivered 2 h before lights out (t=0 h). Food intake and mouse weight was manually measured at t=0, 2, 4, 6, 8, 24, 48, and 72 h post-injection. Mice recovered 6-7 days between treatments to reestablish pretreatment body weight and feeding patterns.

[16] = target: T4, mMC4R; set-up: expressed in transfected cells; details: cited from earlier work
[17] = target: T6, hMC4R-Kir7.1(M125R) (Homo sapiens, UniProt P32245); assay: Kir7.1 thallium flux assay, HEK293 cells expressing human MC4R and Kir7.1 (M125R); assay type: cell-based; details: antagonist Ki / Kir7.1 apparent potency
T6 construct: expressed in transfected cells; Kir7.1 tetracycline-induced)
T6 sequence (P32245 whole entry, stated change not applied): as the sequence (P32245 whole entry) above
Method: In this assay, the Kir7.1 (M125R) variant was used since it previously was reported to result in higher unitary conductance compared to the native channel.^39
The compound with the highest apparent potency.
HEK293 cells stably expressing the human MC4R and Kir7.1 (M125R) were grown in MEM medium with 10% FBS without antibiotics, suspended in medium plus 1 μg ml^−1 tetracycline (to induce expression of the transfected tet-sensitive Kir7.1 gene) and plated (20 μL) in 384-well poly-D-lysine coated optical bottom plates (BD Biosciences) at 20,000 cells per well. Plates were incubated overnight for 16-24 h in the cell incubator at 37° C., 5% CO2. […] Plates were incubated in the dark for 1 h at room temperature and dye solution was removed. Upon addition of 20 μL 1×HBSS buffer, a liquid handler added 20 μL of ligand solution to entire plate simultaneously (ligands were prepared by serial dilution in 1×HBSS, 20 mM HEPES, 0.1% BSA, pH 7.3). Plates were incubated in the dark for 20 min (unless otherwise indicated). After a baseline reading on a Thallos Plate-reader (Vanderbilt, Tenn.), 10 μL of a thallium solution (1×HBSS, 20 mM HEPES, 2 mM Tl, pH 7.3) was loaded and fluorescence generated by thallium influx was recorded for 10 min. The signal was normalized to an untreated control.

[18] = target: T5, MC4R; assay: AlphaScreen cAMP assay, antagonist activity (Schild, NDP-MSH) at hMC4R; assay type: cell-based; set-up: expressed in transfected cells; details: Example 5
Target sequence in this assay (P32245 whole entry): as above
Method: (§1) Briefly, cells 70-90% confluent were dislodged with Versene (Gibco®) at 37° C. and plated 10,000 cells/well in a 384-well plate (Optiplate™) with 10 μL freshly prepared stimulation buffer (1×HBSS, 5 mM HEPES, 0.5 mM IBMX, 0.1% BSA, pH=7.4) with 0.5 μg anti-cAMP acceptor beads per well.
(§2) Following stimulation, streptavidin donor beads (0.5 μg) and biotinylated-cAMP (0.62 μmol) were added to the wells in a subdued light environment with 10 μL lysis buffer (5 mM HEPES, 0.3% Tween-20, 0.1% BSA, pH=7.4) and the plates were incubated in the dark at room temperature for an additional 2 hr.
(§3) The EC50 values represent the mean of duplicate replicates performed in at least three independent experiments. The EC50 estimates and associated standard errors (SEM) were determined by fitting the data to a nonlinear least-squares analysis using the PRISM program (v4.0, GraphPad Inc.). The ligands were assayed as TFA salts and not corrected for peptide context.

[19] = system: free-feeding mice; assay: Mouse feeding study, intrathecal (IT) administration (Example 5); assay type: in vivo; details: 10 nmol
Method: All studies were performed in standard mouse polycarbonate conventional cages provided by the University of Minnesota's Research Animal Resources (RAR), and were changed weekly by laboratory research staff.
All ICV and IT administration experiments utilized a crossover design with free access to standard chow. Mice were housed in RAR supplied conventional mouse cages. Compound MDE3-119-8e was dissolved in a stock solution of 10 nmols/μL in 3% v/v DMSO (Sigma Aldrich)/saline (0.9% sodium chloride, Hospira Inc., Lake Forest, Ill.). Ligands MDE3-119-2c and MDE3-119-10c were dissolved in 20% solutol (Sigma Aldrich). Matching vehicle controls (3% v/v DMSO in saline and 20% solutol) were prepared in parallel. The day of compound administration, an aliquot of stock solution was diluted with saline to the desired experimental dose in 3 μL, in parallel with vehicle control. For ICV administration, the desired experimental dose (3 μL) or vehicle control (3 μL) was delivered 2 h before lights out (t=0 h). […] Food intake and mouse weight was manually measured at t=0, 2, 4, 6, 8, 24, 48, and 72 h post-injection. […]
For feeding experiments with compound MDE3-119-10c, data were analyzed using the PRISM program (v4.0; GraphPad Inc.) by two-way ANOVA with a Sidak's multiple comparison post hoc test.

[20] = target: T5, MC4R; set-up: expressed in transfected cells; details: Table 10; AGRP(87-132), previously reported by Jackson et al.; read-out: hMC4R 125I-NDP-MSH IC50; cited from earlier work
Target sequence in this assay (P32245 whole entry): as above

[21] = target: T5, MC4R; assay: AlphaScreen cAMP assay, inverse agonist activity at hMC4R; assay type: cell-based; set-up: expressed in transfected cells; details: Table 10
Target sequence in this assay (P32245 whole entry): as above
Method: The apparent potencies were determined from the inflection point of the normalized sigmoidal dose-response curves.
as §1, §2, §3

[22] = target: T1, mMC5R; details: Table 6; previously described (Wilczynski 2004); read-out: Inverse Agonist mMC5R EC50; cited from earlier work
[23] = target: T2, mMC3R; details: Table 6, previously described (Wilczynski 2004), cited from earlier work
[24] = system: rats; details: ICV administration into rats; cited from earlier work
[25] = target: T3, mMC1R; details: Table 6; previously described (Wilczynski 2004); read-out: Agonist mMC1R EC50; cited from earlier work
[26] = target: T6, hMC4R-Kir7.1(M125R); details: up to 100 nM; literature; cited from earlier work

Question: What does the source list for “20 (cyclo(PRFFNFF[dP]); SMILES N=C(N)NCCC[C@@H]1NC(=O)[C@@H]2CCCN2C(=O)[C@H]2CCCN2C(=O)[C@H](Cc2ccccc2)NC(=O)[C@H](Cc2ccccc2)NC(=O)[C@H](CC(N)=O)NC(=O)[C@H](Cc2ccccc2)NC(=O)[C@H](Cc2ccccc2)NC1=O) [Peptide 20]”?
Answer: mMC5R percent maximal stimulatory response [1]: 25% @; mMC3R percent maximal stimulatory response [2]: 35% @; mMC1R percent maximal stimulatory response [3]: 70% @ 100 μM; fold selectivity for the mMC4R over the mMC3R [4]: 600 fold and 630 fold; mMC4R percent maximal stimulatory response [5]: 35% @

Question: With “ASP-YY: synthesized ASP variant with two residues changed to the homologous AGRP residues (KKVVRPRTPLSAPCVATRNSCKPPAPACCDPCASCYCRFFRSACYCRVLSLNC; UniProt P42127 80-132, looked up, variant Q115Y S124Y)” as the substance, how does the “functional antagonist potency, hMC4R” value [6] read?
Answer: 0.5 nM

Question: What about the “functional antagonist potency, hMC3R” value [7] of the same substance?
Answer: 2.6 nM

Question: What about the “functional antagonist potency, hMC1R” value [8] of the same substance?
Answer: 3.9 nM

Question: What about the “functional antagonist potency, hMC1R” value ([8]; listed as Agouti-YY) of the same substance?
Answer: 4.0 nM

Question: For “H-DPAATAYCRFFNAFCYARKL-OH (disulfide 8-15) [20 residue peptide]”, which EC50 [9] is on record?
Answer: 960 nM

Question: What about the “MC4R antagonist pA2” value [10] of the same substance?
Answer: 6.9

Question: With “Tyr-c[Cys-Arg-Phe-Phe-Asn-Ala-Phe-Cys]-Tyr (YCRFFNAFCY; disulfide 2-9) [hAGRP (109-118)]” as the substance, how does the EC50 ([9]; listed as H-Tyr-c[Cys-Arg-Phe-Phe-Asn-Ala-Phe-Cys]-Tyr-OH) read?
Answer: 2890 nM

Question: And the EC50 [9]?
Answer: 3000 nM

Question: What about the “MC4R antagonist pA2” value [11] of the same substance?
Answer: 6.8 ± 0.4

Question: What about the “MC3R antagonist pA2” value [12] of the same substance?
Answer: No activity

Question: For “c[Pro-Arg-Phe-Phe-Val-Ala-Phe-DPro] [Peptide 13 (Example 1)]”, which “fold decreased binding affinity compared to NDP-MSH” value [13] is on record?
Answer: 200 fold

Question: And the “fold decreased binding affinity compared to AGRP” value [14]?
Answer: 200 fold

Question: What about the “cumulative food intake after ICV administration vs vehicle” value [15] of the same substance?
Answer: significant, prolonged decrease in cumulative food intake at 4, 6, 8, 24, 48, and 72 h

Question: And the “fold decreased antagonist potency compared to the Dap substitution at the mMC4R” value ([16]; previous SAR study (ref 52))?
Answer: 630 fold

Question: What about the “fold selective for Kir7.1 signaling over cAMP antagonism” value [17] of the same substance?
Answer: 4,000 fold

Question: And the “fold decreased antagonist potency relative to MDE3-119-8c at the hMC4R” value [18]?
Answer: 310 fold

Question: What about the “food intake after IT administration vs vehicle” value [19] of the same substance?
Answer: no effect on food intake compared to vehicle

Question: With “hAGRP(86-132): C-terminal domain of agouti-related protein, purchased from Peptides International (RCVRLHESCLGQQVPCCDPCATCYCRFFNAFCYCRKLGTAMNPCSRT) [reference compound]” as the substance, how does the IC50 [20] read?
Answer: 11 ± 1 nM

Question: And the “hMC4R Inverse Agonist, decrease from basal signal” value [21]?
Answer: (-35%)

Question: What about the “fold selective for cAMP over Kir7.1 signaling” value [17] of the same substance?
Answer: 2 fold

Question: With “hAGRP(87-132): truncated human agouti-related protein, previously described in Wilczynski et al. 2004” as the substance, how does the “Antagonist mMC4R pA2” value ([16]; Table 6, previously described (Wilczynski 2004)) read?
Answer: 9.4 ± 1.0

Question: What about the Ki ([16]; Table 6, previously described (Wilczynski 2004), read-out: Antagonist mMC4R Ki) of the same substance?
Answer: 0.4 nM

Question: What about the EC50 [22] of the same substance?
Answer: > 100 µM

Question: What about the “Antagonist mMC3R pA2” value [23] of the same substance?
Answer: 8.9 ± 0.2

Question: What about the Ki ([23]; read-out: Antagonist mMC3R Ki) of the same substance?
Answer: 1.3 nM

Question: What about the “increase of 24 h food intake above saline” value [24] of the same substance?
Answer: 42%

Question: And the EC50 [25]?
Answer: > 100 µM

Question: For “mini-AGRP: truncated form of AGRP (AGRP87-120, C105A) (CVRLHESCLGQQVPCCDPAATCYCRFFNAFCYCR; ends and bridges not checked; cysteine pairing not given here; UniProt O00253 87-120, looked up, fragment C105A)”, which “effect on thallium flux” value [26] is on record?
Answer: did not affect thallium flux at concentrations up to 100 nM

Question: What about the “increase of 24 h food intake above saline” value [24] of the same substance?
Answer: 21%
